We go through one substance from US20240067748A1.

The target in experiment [1] is monkey Trop2 on CHO-K1 cells (monkey). Nature of the experiment: flow cytometry on CHO-K1/monkey Trop2 cells (second run); negative control. On the technique in general: A flow cytometer gives signals particle by particle.
Experiment [2] addresses human Trop2 on cells (human) (UniProt P09758). Description: flow cytometry on BxPC-3 tumor cells; negative control.
For experiment [3] the target is unchanged. Description: flow cytometry on BxPC-3 tumor cells (second panel of the table); negative control.
Experiment [4] deals with monkey Trop2 on CHO-K1 cells (monkey). Description: flow cytometry on CHO-K1/monkey Trop2 cells; negative control.

Sequence of monkey Trop2 on CHO-K1 cells (monkey) (A0A2K5 entry or part of it limits assumed): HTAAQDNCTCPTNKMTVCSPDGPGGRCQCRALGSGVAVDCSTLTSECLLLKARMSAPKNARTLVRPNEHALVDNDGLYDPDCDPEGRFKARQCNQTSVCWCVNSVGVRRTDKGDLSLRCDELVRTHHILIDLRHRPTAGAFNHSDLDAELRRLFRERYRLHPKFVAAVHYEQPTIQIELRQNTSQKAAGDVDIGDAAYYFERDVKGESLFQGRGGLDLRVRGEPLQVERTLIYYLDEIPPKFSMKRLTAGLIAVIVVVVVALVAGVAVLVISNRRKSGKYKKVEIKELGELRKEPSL
Sequence of human Trop2 on cells (human) (P09758 27-323): as the sequence (A0A2K5 entry or part of it limits assumed) above, with V36M, E46K, N67S, V204I, V266M, S272T counted along it

On to hIgG1 (antibody), for which the Maximum MFI value is 109 MFI in experiment [1], 77 MFI in experiment [2], 670 MFI in experiment [3] and 277 MFI in experiment [4]. The EC50 (as a rule, the concentration at which the effect is half-maximal) in experiment [4] turned out to be 1890 nM.
